Assay [1] has as its target mouse PD-L1 polypeptide on T cells of wild-type mice (mouse) (UniProt Q9EP73). In words: flow cytometry, CD4+ T cells from spleen of wild-type mouse, isotype control in α-hPD-L1 column. (In flow cytometry, cells or beads pass a laser one at a time.)
The target is the same in assay [2]. In words: flow cytometry, CD8+ T cells from spleen of wild-type mouse, isotype control in α-hPD-L1 column.
Assay [3] deals with humanized PD-L1 polypeptide (human portion and endogenous mouse portion) on T cells of mice homozygous for the humanized CD274 gene of Example 1 (human; mouse) (UniProt Q9NZQ7). In words: flow cytometry, CD8+ T cells (CD3+CD8+) from spleen of humanized CD274 mouse, isotype control in α-hPD-L1 column.
UniProt Q9NZQ7, sequence (Q9NZQ7 other isoform, or with tags, fused parts or gaps limits assumed): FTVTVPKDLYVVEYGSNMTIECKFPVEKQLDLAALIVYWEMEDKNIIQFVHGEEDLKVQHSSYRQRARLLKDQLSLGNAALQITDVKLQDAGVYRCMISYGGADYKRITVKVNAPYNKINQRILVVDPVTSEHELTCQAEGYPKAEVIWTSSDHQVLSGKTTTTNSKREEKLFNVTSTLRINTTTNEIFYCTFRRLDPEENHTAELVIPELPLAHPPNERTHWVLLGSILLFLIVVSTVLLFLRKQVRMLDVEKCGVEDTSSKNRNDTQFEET
Assay [4] has the same target. In words: flow cytometry, CD4+ T cells (CD3+CD4+) from spleen of humanized CD274 mouse, isotype control in α-hPD-L1 column.
Assay [5] shares this target. In words: flow cytometry, CD4+ T cells (CD3+CD4+) from spleen of humanized CD274 mouse, isotype control in α-mPD-L1 column.
Assay [6] concerns the target mouse PD-L1 polypeptide on T cells of wild-type mice (mouse) (UniProt Q9EP73). In words: flow cytometry, CD4+ T cells from spleen of wild-type mouse, isotype control in α-mPD-L1 column.
Assay [7] shares this target. In words: flow cytometry, CD8+ T cells from spleen of wild-type mouse, isotype control in α-mPD-L1 column.
In assay [8] the target is humanized PD-L1 polypeptide (human portion and endogenous mouse portion) on T cells of mice homozygous for the humanized CD274 gene of Example 1 (human; mouse) (UniProt Q9NZQ7). In words: flow cytometry, CD8+ T cells (CD3+CD8+) from spleen of humanized CD274 mouse, isotype control in α-mPD-L1 column.
Assay [9] has the same target. In words: flow cytometry, CD8+ T cells from spleen of humanized CD274 mouse, stimulated with anti-CD3/anti-CD28 for 72 hours.
Assay [10] has the same target. In words: flow cytometry, CD4+ T cells from spleen of humanized CD274 mouse, stimulated with anti-CD3/anti-CD28 for 72 hours.
In assay [11] the target is mouse PD-L1 polypeptide on T cells of wild-type mice (mouse) (UniProt Q9EP73). In words: flow cytometry, CD8+ T cells from spleen of wild-type mouse, unstimulated.
For assay [12] the target is unchanged. In words: flow cytometry, CD4+ T cells from spleen of wild-type mouse, unstimulated.
Assay [13] addresses humanized PD-L1 polypeptide (human portion and endogenous mouse portion) on T cells of mice homozygous for the humanized CD274 gene of Example 1 (human; mouse) (UniProt Q9NZQ7). In words: flow cytometry, CD8+ T cells from spleen of humanized CD274 mouse, unstimulated.
Assay [14] has as its target mouse PD-L1 polypeptide on T cells of wild-type mice (mouse) (UniProt Q9EP73). In words: flow cytometry, CD4+ T cells from spleen of wild-type mouse, stimulated with anti-CD3/anti-CD28 for 72 hours.
Assay [15] concerns the target humanized PD-L1 polypeptide (human portion and endogenous mouse portion) on T cells of mice homozygous for the humanized CD274 gene of Example 1 (human; mouse) (UniProt Q9NZQ7). In words: flow cytometry, CD4+ T cells from spleen of humanized CD274 mouse, unstimulated.
The target in assay [16] is mouse PD-L1 polypeptide on T cells of wild-type mice (mouse) (UniProt Q9EP73). In words: flow cytometry, CD8+ T cells from spleen of wild-type mouse, stimulated with anti-CD3/anti-CD28 for 72 hours.

Data on four substances can be found in patent US20210105983A1.

UniProt Q9EP73, sequence (Q9EP73 19-290): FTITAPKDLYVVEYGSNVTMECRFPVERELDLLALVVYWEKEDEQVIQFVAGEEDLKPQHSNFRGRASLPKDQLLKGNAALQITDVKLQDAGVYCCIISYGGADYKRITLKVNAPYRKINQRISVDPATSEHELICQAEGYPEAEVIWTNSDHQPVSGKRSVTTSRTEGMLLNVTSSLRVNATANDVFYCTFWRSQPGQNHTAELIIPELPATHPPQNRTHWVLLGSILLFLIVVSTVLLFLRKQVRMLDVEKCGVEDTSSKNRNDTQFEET

With “Isotype control (α-hPD-L1 columns of Table 5) (antibody)”, the Mean Fluorescence Intensity in assay [1] is -58; in assay [2], 64; in [3] it was 78; in assay [4], -55.
Regarding “Isotype control (α-mPD-L1 columns of Table 5) (antibody)”, the Mean Fluorescence Intensity in assay [5] was -52; in [6] it was -39; in assay [7] it was 64; in assay [8], 84.
For “anti-human PD-L1 antibody, clone MIH1 (BD Biosciences)”, the Mean Fluorescence Intensity in [9] was 384; in assay [10], 457; in assay [11], 62; in assay [12] it was -45; in assay [13] it was 271; in assay [14], 22. Moreover, the Mean Fluorescence Intensity turned out to be 114 in [15] and 113 in assay [16].
As to “anti-mouse PD-L1 antibody, clone 10F.9G2 (eBioscience)”, the Mean Fluorescence Intensity in assay [9] is 276; in assay [10], 155; in assay [11], 712; in assay [12], 538; in [13], 160; in [14], 2800. The values for the Mean Fluorescence Intensity in [15] and in assay [16] were 61 and 3170, respectively.
